# In patent publication US20250172552A1 (ANN AND ROBERT H LURIE CHILDREN S HOSPITAL OF CHICAGO, published 2025):
# T1: KDpeptide2
# T1 construct: Synthetic peptide (Anaspec) coated on ELISA plates at 800 ng per well
# T1 peptide: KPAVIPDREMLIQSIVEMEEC
# T2: KDpeptide3
# T2 construct: Synthetic peptide (Anaspec) coated on ELISA plates at 800 ng per well; also the base peptide of substitution scans; also called Kdpep3; KD3
# T2 peptide: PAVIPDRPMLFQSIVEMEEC
# B1: KD9-2H6 (antibody, V domains shown)
# VH: EVQLVESGGGLVKPGESLRLSCVGSGFTLTNAWMIWVRQTSGKGLEWVGRIKSKIDGGAIDYGAPVKGRFTISRDDTKNTVYLQMNSLQTDDTGVYFCTTDRYSTGYYGMDDYWGQGTLVTV
# VL: SYELTQPPSVSVSPGQTATITCSGDKLGDKYSFWYQQKPGQSPVVVIYQDSKRPSGIPERFSGSNSGNTATLTISGTQAMDEADYYCQVWDTDSAVFGTGTRVTV
# B2: KD9-2A4 (antibody, V domains shown)
# VH: LVESGGGLVQPGGSLRLSCAASGFTFSSYAMHWVRQAPGKGLEFASAISSDGGTTYYANSVKGRFTISRDNSKNTLYLQMGSLRDEDMAVYYCARDDLSTSWDLDYWGQGTLVTV
# VL: QSALTQPASVSGSPGQSITISCTGTSSDVGGYNYVSWYQQHPGKAPKLMIYDVSNRPSGVSNRFSGSKSGNTASLTISGLQAEDEADYYCSSYTISSTNVFGTGTKVTVL
# B3: KD12-2A10 (antibody, V domains shown)
# VH: EVQLVESGGGLVKPGGSLRLSCAASGFTFINAWMNWVRQAPGKGLEWVGLIKSKTDGGTIDYAAPVKGRFTISRDDSEKMLYLQMDSLKTEDTAVYYCTTMYGWKDARDYWGQGTLVTV
# VL: EIVLTQSPGTLSLSPGERATLSCRASQSVSSNLAWYQQKPGQAPRVLIYGASSRATGIPDRFSGSRSGTDFTLTISRLEPEDFAVYYCQRYDNSPRTFGQGTKVEIK
# B4: KD5-2D7 (antibody, V domains shown)
# VH: EVQLVESGGGLVQPGGSLGLSCAASGFTFSNYWMHWVRQAPGKGLVWVSRINSDGSDTSYADSVKGRFTISRDNAENTLYLHMSSLRAEDTAVYYCARELGYGDYGMDVWGKGTTVTVS
# VL: QSVLTQPPSASGTPGQRVTISCSGSSSNIGSHSVIWYQQLPGTAPKLLVYSDNQRPSGVPDRFSGSKSGTSASLAISGLQSEDEADYYCAAWDDSLNHLHVVFGGGTKLTVL
# B5: KD12-1G7 (antibody, V domains shown)
# VH: EVQLVESGGGLVQPGGSLRLSCGASGFTVSGKYMTWARQAPEKGLEWVSAIYRGGGTYYADSVKGRFTISRDNSKNMLYLQMNSLRAEDTAVYYCGGSVMVSATDYWGQGTLVTV
# VL: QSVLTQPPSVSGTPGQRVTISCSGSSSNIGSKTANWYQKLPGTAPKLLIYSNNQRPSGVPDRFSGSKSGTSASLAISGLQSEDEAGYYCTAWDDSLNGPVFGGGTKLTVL
# B6: KD2-1D10 (antibody, V domains shown)
# VH: EVQLVESGGGLIHPGGSLRLSCAASGFTFSSYWMHWVRQAPGKGLVWVSHIKSDGSNTIYADSVKGRFTISRDNAKNTLYLQMNSLRAEDTAVYYCGRGRSLTPRSAIDYWGQGTLVTV
# VL: QSALTQPPSASGSPGQSVTITCTGTSSDVGGYNYVSWYQQHPGKAPKLMIYEVSKRPSGVPDRFSGSKSGNTASLTVSGLQAEDEADYHCSSFAGDNNSPVFGGGTKLTVL
# B7: KD10-1G3 (antibody, V domains shown)
# VH: EVQLVESGGGLVQPGGSLKLSCAASGFSFSGAAMHWVRQSSGRGLEWLGRIRSKTNDYATAYAESLHGRFTISRDDAKNTAYLQMNRLKSEDTAIYYCTTVLSKGDHAVWLGPWGPGTLVTV
# VL: QPVLTQPPSSSASPGESARLTCTLPSDISVAASDIYWYQQKAGSPPNFLLYDPSDSHKGQDSGVPSRFSGSRDGSANSGFLLISGVQSEDEADYYCMVWPPNTVGVVFGGGTTLTV
# B8: KD10-1A8 (antibody, V domains shown)
# VH: EVQLVESGGGLVQPGGSLRLSCAASGFTFSSYWMEWVRQAPGKGLVWVSHISSDGSVTRYVDSVKGRFTISRDNAKNTLYLQMNSLRAEDTGVYYCAKDLHWNALDVWGQGTMVTVS
# VL: DIVMTQTPLSLSVTPGQPASISCKSSQSLLHNDGKTFLHWYLQKPGQSPQLLIYEVSSRFSGVPDRFSGSGSGTDFTLKISRVEAEDVGVYYCMQGIHLPPTFGGGTKVEIKR
# B9: KD1-1H8 (antibody, V domains shown)
# VH: EVQLVESGGGSVQPGGSLRLSCAASGFTFSNYWMHWVRQAPGKGLVWVSRLNIDGSNTFYADSVKGRFTISRDNAKNTLYLQMNSLRAEDTAVYYCVRGGSDSGDSVPFDLWGRGTLVTVS
# VL: EIVMTQSPATLSVSPGERATLSCRASQSVSSNLAWYQQNPGQAPRLLIYGASTRATGIPARFSGSGSGTEFTLTISSLQSEDFAVYYCQHYNNWPFTFGQGTKVEIK
# B10: KD7-2H5 (antibody, V domains shown)
# VH: EVQLVESGGGLVQPGGSLRLSCAASGFTFSSYWMHWVRQAPGKGLVWVSRINSDGSSTSYADSVKGRFAISRDNAKNTLYLQMNSLRAEDTAVYYCARALGGWDIDYWGQGTLVTVS
# VL: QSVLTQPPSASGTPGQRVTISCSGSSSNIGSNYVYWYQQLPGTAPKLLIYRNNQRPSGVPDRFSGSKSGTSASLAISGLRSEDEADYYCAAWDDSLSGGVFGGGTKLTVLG
# B11: KD7-1B5 (antibody, V domains shown)
# VH: VQLVESGGGVVQPGRSLRLSCEASGFTFRSRAMHWVRQAPGKGLGWVAVIWYDGSNKYYADSVKGRFTISRDNSRNTLYLQMNSLRAEDTAVYYCARDLGSGFSLDYWGQGTLVTVS
# VL: QSVLTQPPSVSAAPGQKVTISCSGSSSNIGNNYVSWYQQLPGTAPKLLIYDNNKRPSGIPDRFSGSKSGTSATLGITGLQTGDEADYYCGTWDSSLSAEVFGGGTKLTVLG
# B12: KD1-2B1 (antibody, V domains shown)
# VH: EVQLVESGGGLVQPGGSLRLSCAASGFTFSSYWMHWVRQAPGKGLVWVSRINNDGSSTGYADSVEGRFTISRDNAKNTLYLQINSLRAEDTAVYYCARQDGHYYYSMDVWGQGTTVTV
# VL: QSALTQPRSVSGSPGQSVTISCTGTSSDVGGYNYVSWYQQHPGKAPKLMIYDVSERPSGVPARFSGSKSGNTASLTISGLQAEDEADYYCCSYAGNFRWVFGGGTKLTVL
# B13: KD11-2E4 (antibody, V domains shown)
# VH: EVQLVESGGGVVQPGESLRLSCAASGVTFSSYWMHWVRQVPGKGLVWVARINIDGTSTTYADCVKGRFTISRDNAKNTLYLQMSSLRAEDTAVYYCATERGLLSGGRWHSSHFDYWGQGTLVTVS
# VL: DIQMTQSPSTLSASVGDRVTITCRASQSISSWLAWYQQKPGKAPKVLIYKTSSLESGVPSRFSGSGSGTEFTLTISSLQPDDFATYYCQQYDSSSLTWTFGQGTKVEIK
# B14: KD3-1C10 (antibody, V domains shown)
# VH: EVQLVESGGGLVQPGGSLRLSCAASGFTFSNHWMHWVRQAPGKGLLWVSRIDTGGSTTNYADSVKGRFTISRDSAKNTVYLQMNSLRAEDTAVYYCARGGLFYYGMDVWGQGTTVTV
# VL: EIVLTQSPGTLSLSPGERATLSCRASQTSSSTSLAWYQQKRGQAPRLLIYGASRRATGIPDRFSGSGSGTDFTLTISRLEPEDFAVYYCQQFSGSPAYTFGQGTKVEIK
# Target: T1, KDpeptide2
# Test: ELISA on coated synthetic peptide
row,Binder,binding result
1,B1,no binding
2,B2,no binding

# Target: T2, KDpeptide3
# Test: ELISA on coated synthetic peptide
row,Binder,binding result
1,B1,no binding
2,B2,no binding

# Target: T2, KDpeptide3
# Test: ELISA on coated synthetic peptide
# Remark: another data set of the same source
row,Binder,binding result
1,B3,binds
2,B4,binds
3,B5,binds
4,B6,binds
5,B7,binds
6,B8,binds
7,B9,binds
8,B10,binds
9,B11,binds
10,B12,binds
11,B13,binds
12,B14,binds

# Target: T1, KDpeptide2
# Test: ELISA on coated synthetic peptides, direct comparison
row,Binder,binding result
1,B4,binds
2,B6,binds
3,B7,binds
4,B9,binds
5,B10,binds
6,B11,binds
7,B12,binds
8,B13,binds
